The chains are these.
B1: 07C3 with Tag-2 (VHH)
VHH: EVQLVESGGGLVQAGESLTLSCAASGRTLSAYIMGWFRQAPGKEREFVAGIWSGGYTHLADSAKGRFSISRDNAKNTVYLQMNGLKPEDTAVYYCAAGLRGRQYSNWGQGTQVTVSS
notes: Purified monovalent Nanobody from E. coli (pAX100); also called 7CXCR07C3
B2: 07B11 with Tag-1 (VHH)
VHH: EVQLVESGGNLVQAGGSLGLSCAASVSISSIHIMGWYRQAPGKQRDLVATITSGGSTAYADSVKGRFTVSKDNAKNTVYLQMDSLKPEDTSVYYCAAEVRNGVFGKWNHYWGQGTQVTVSS
B3: 08A10 with Tag-1 (VHH)
VHH: EVQLVESGGGLVQAGGSLRLSCAASGSIFSIAAMGWYRQATGKQRELVATITDGGTTTYADSVKGRVTISRDRSANTVYLAMNNLKPDDTAVYYCYAYLRYTSRVPGDNYWGQGTQVTVSS
B4: 07C3 with Tag-1 (VHH)
VHH: EVQLVESGGGLVQAGESLTLSCAASGRTLSAYIMGWFRQAPGKEREFVAGIWSGGYTHLADSAKGRFSISRDNAKNTVYLQMNGLKPEDTAVYYCAAGLRGRQYSNWGQGTQVTVSS
B5: 08A5 with Tag-1 (VHH)
VHH: EVQLVESGGGLVQAGDSLRLSCAASGLTFSNYDMGWFRQAPGKEREFVGASWWSGGAPYYSDSVKGRFTISRDNAKNTVYLQANSLRPEDTAVYYCAAKRLRSFASGGSYDYWGQGTQVTVSS
B6: 07B11 with Tag-2 (VHH)
VHH: EVQLVESGGNLVQAGGSLGLSCAASVSISSIHIMGWYRQAPGKQRDLVATITSGGSTAYADSVKGRFTVSKDNAKNTVYLQMDSLKPEDTSVYYCAAEVRNGVFGKWNHYWGQGTQVTVSS
notes: Purified monovalent Nanobody from E. coli (pAX100); also called 707B11
B7: 08A10 with Tag-2 (VHH)
VHH: EVQLVESGGGLVQAGGSLRLSCAASGSIFSIAAMGWYRQATGKQRELVATITDGGTTTYADSVKGRVTISRDRSANTVYLAMNNLKPDDTAVYYCYAYLRYTSRVPGDNYWGQGTQVTVSS
notes: Purified monovalent Nanobody from E. coli (pAX100)
B8: Mab 11G8 (R&D Systems) (antibody, V domains shown)
VH: EVKLVESGGDLVQPGGSLKLSCATSGFTFSDYYMFWVRQTPEKRLEWVAYITNGGDRSYYSDTVTGRFIISRDNAKNTLYLQMSRLKSEDTAMYYCARQGNWAAWFVYWGQGTLVTVSA
VL: DVLMTQTPLSLPVSLGDQASISCRSSHYIVHSDGNTYLEWYLQKPGQSPKLLIYKVSNRFSGVPDRFSGSGSGTDFTLKISRVEAEDLGIYYCFQGSHVPLTFGAGTKLELKR
B9: 08A5 with Tag-2 (VHH)
VHH: EVQLVESGGGLVQAGDSLRLSCAASGLTFSNYDMGWFRQAPGKEREFVGASWWSGGAPYYSDSVKGRFTISRDNAKNTVYLQANSLRPEDTAVYYCAAKRLRSFASGGSYDYWGQGTQVTVSS
notes: as for B7

For the first assay, the target named is T1, Human CXCR7 (human, UniProt P25106 1-362).
T1 construct: also called hCXCR7; CXCR7-LP
T1 sequence (P25106 whole entry): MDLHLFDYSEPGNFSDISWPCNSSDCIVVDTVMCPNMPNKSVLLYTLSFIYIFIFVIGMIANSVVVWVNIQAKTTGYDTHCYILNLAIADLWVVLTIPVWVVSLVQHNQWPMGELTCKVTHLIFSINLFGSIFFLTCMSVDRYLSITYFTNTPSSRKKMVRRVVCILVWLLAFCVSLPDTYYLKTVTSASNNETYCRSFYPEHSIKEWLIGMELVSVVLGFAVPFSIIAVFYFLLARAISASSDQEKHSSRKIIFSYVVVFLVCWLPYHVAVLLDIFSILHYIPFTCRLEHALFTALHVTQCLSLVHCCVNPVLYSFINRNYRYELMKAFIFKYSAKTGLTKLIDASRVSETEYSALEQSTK
In words: competition FACS, 4 nM biotinylated SDF1 on HEK-hCXCR7 cells. The method, then:
The potency of Nanobody 7CXCR07C3 and Mab 8F11 (Biolegend) to compete with SDF1 was evaluated in competition FACS with HEK-hCXCR7 cells. Cells were incubated simultaneously with 4 nM biotinylated SDF1 (R&D) and with diluted test molecules, for 2 h at 4° C. Binding of biotinylated SDF1 was detected using streptavidin-PE. Competition curves are depicted in FIG. 1.
Mab 8F11 (Biolegend) (antibody) displayed a competition (% relative to unlabelled SDF1) above 95%.

Turning to B1, the “competition (% relative to unlabelled SDF1)” value is above 95%.

Another assay addresses T1, Human CXCR7. Put plainly: FACS, ratio of Hek293 hCXCR7 signal over control cells. The method, then:
Clones representing distinct Nanobody B-cell lineages were tested as periplasmic extracts for their binding to cell surface exposed CXCR7. In this assay, 5-fold dilutions of periplasmic extract were incubated with Hek293 hCXCR7 and Hek293 wt cells. Binding of the Nanobodies was detected using mouse anti-myc (Serotec), followed by anti-mouse IgG-PE (Jackson Immununoresearch). Binding signals of selected Nanobody clones (mcf values and ratios of binding) are represented in Table B-8 and indicate that the Nanobodies do bind to cellular human CXCR7.
As for B2, the “Fod Hek CXCR7/CXCR4” value stood at 110 fold.

On to B3, for which the “Fod Hek CXCR7/CXCR4” value stood at 85.1 fold.

Take B4: the “Fod Hek CXCR7/CXCR4” value was 73.2 fold.

B5: the “Fod Hek CXCR7/CXCR4” value worked out at 60.1 fold.

In the next assay the target is T1, Human CXCR7. Put plainly: displacement of 75 pM [125I]-CXCL12 from NIH3T3-hCXCR7 cells. The method, then:
In order to assess the competition capacity, Nanobodies were evaluated in SDF1 ligand displacement assays using stable NIH3T3-hCXCR7 cells. 24 h after seeding the cells, the cells were pre-incubated for 1 h at 4° C. with a dilution series of purified monovalent Nanobodies and the corresponding C-terminal Tag-2 tagged fusion proteins to the human serum albumin binding Nanobody Alb8 (see Table B-4: SEQ ID NOs: 44 to 48 wherein the polypeptides are all C-terminal tagged with Tag-2). Also reference molecules Mab 8F11 (Biolegend), Mab 11G8 (R&D) and unlabelled SDF1 were included in the assay. Radiolabeled [¹²⁵I]-CXCL12 was diluted and added to the cells to reach a final concentration of 75 pM and cells were incubated for 3 h at 4° C. After incubation, cells were washed twice, lysed with RIPA buffer and the ¹²⁵I signal was measured. The competition of tested Nanobodies and 8F11 Mab is between 73 and 83%, relative to competition with unlabelled SDF1. This level of displacement correspond to a 100% blocking of the CXCR7 protein, as the remaining SDF-1 binding is believed not to be CXCR7 mediated, but due to the SDF-1 interaction with heparan sulfate proteoglycans. Fusion to the human serum albumin-binding Nanobody Alb8 has no significant effect on Ki values.
Molecule Mab 8F11 (Biolegend) (antibody) displayed a displacement (% relative to cold SDF1) of 73%.

On to B6, for which the “displacement (% relative to cold SDF1)” value is 75%.

Take B7: the “displacement (% relative to cold SDF1)” value turned out to be 75%.

Turning to B8, the “displacement (% relative to cold SDF1)” value was found to be 24%.

For B1, the “displacement (% relative to cold SDF1)” value amounted to 78%.

For B9, the “displacement (% relative to cold SDF1)” value came to 77%.

Source of the values: patent publication US20110262438A1 (Ablynx, published 2011).
